Source: US20030203373A1 (priority 2002, published 2003)

Target: T1, angiotensin-converting-enzyme derived from pig kidney (pig) (UniProt F1RRW5)
T1 sequence (looked up): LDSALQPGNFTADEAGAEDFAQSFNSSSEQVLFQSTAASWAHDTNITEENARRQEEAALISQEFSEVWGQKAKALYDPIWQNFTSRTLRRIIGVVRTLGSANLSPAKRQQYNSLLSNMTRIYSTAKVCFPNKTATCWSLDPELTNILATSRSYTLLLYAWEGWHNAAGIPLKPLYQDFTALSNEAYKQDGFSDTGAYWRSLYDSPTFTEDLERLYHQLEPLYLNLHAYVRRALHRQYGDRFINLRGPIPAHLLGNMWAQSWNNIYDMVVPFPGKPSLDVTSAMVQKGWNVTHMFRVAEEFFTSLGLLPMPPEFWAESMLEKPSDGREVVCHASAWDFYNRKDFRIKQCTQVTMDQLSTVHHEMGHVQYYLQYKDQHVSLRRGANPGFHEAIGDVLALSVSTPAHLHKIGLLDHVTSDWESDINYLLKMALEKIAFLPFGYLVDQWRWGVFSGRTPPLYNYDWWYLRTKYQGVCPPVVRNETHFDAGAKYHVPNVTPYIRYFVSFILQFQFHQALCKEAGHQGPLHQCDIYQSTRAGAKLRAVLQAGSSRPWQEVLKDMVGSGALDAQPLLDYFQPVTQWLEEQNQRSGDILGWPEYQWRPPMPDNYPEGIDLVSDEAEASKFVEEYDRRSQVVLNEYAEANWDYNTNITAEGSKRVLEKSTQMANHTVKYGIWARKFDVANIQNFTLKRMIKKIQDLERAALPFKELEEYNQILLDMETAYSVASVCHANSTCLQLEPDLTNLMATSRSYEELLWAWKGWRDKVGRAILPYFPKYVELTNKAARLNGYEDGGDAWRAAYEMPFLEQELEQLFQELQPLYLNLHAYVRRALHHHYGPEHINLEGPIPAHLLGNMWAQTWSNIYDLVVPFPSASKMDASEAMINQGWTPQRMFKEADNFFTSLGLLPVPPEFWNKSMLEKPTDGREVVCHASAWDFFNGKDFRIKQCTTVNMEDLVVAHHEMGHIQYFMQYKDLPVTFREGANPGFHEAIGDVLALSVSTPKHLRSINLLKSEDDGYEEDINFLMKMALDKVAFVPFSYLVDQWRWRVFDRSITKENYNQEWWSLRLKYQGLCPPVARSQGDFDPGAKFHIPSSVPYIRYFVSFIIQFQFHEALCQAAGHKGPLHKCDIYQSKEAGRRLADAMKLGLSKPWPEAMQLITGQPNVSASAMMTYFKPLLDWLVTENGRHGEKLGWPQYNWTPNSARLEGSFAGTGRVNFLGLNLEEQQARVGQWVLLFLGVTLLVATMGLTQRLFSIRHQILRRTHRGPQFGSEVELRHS
Experiment: cell-based or functional assay

BPP9a from Bothrops jararaca (peptide)
% inhibition, inhibitor 0.0097 µM, row A: 18%
% inhibition, inhibitor 0.0097 µM, row B: 17.3%
% inhibition, inhibitor 0.0097 µM, row C: 14.8%
% inhibition, inhibitor 0.0097 µM, row D: 7.86%
% inhibition, inhibitor 0.0195 µM, row C: 23%
% inhibition, inhibitor 0.078 µM, row B: 43.5%
% inhibition, inhibitor 0.15625 µM, row B: 63.3%
% inhibition, inhibitor 0.3125 µM, row A: 84%
% inhibition, inhibitor 0.3125 µM, row B: 83.8%
% inhibition, inhibitor 0.625 µM, row A: 94%
% inhibition, inhibitor 0.625 µM, row B: 93.5%
% inhibition, inhibitor 1.25 µM, row B: 97.3%
IC50, ACE inhibition: 97 nM
IC50-value, ACE inhibition (hippuryl-histidyl-leucin substrate): 97 nM
fluorescence, inhibitor 0.0097 µM, row A: 704000
fluorescence, inhibitor 0.0097 µM, row B: 710000
fluorescence, inhibitor 0.0097 µM, row C: 732000
fluorescence, inhibitor 0.0097 µM, row D: 791000
fluorescence, inhibitor 0.0195 µM, row A: 650000
fluorescence, inhibitor 0.0195 µM, row B: 652000
fluorescence, inhibitor 0.0195 µM, row C: 662000
fluorescence, inhibitor 0.0195 µM, row D: 697000
fluorescence, inhibitor 0.039 µM, row A: 629000
fluorescence, inhibitor 0.039 µM, row B: 556000
fluorescence, inhibitor 0.039 µM, row C: 592000
fluorescence, inhibitor 0.039 µM, row D: 454000
fluorescence, inhibitor 0.078 µM, row A: 446000
fluorescence, inhibitor 0.078 µM, row B: 487000
fluorescence, inhibitor 0.078 µM, row C: 445000
fluorescence, inhibitor 0.078 µM, row D: 462000
fluorescence, inhibitor 0.15625 µM, row A: 309000
fluorescence, inhibitor 0.15625 µM, row B: 318000
fluorescence, inhibitor 0.15625 µM, row C: 311000
fluorescence, inhibitor 0.15625 µM, row D: 262000
fluorescence, inhibitor 0.3125 µM, row A: 142000
fluorescence, inhibitor 0.3125 µM, row B: 144000
fluorescence, inhibitor 0.3125 µM, row C: 148000
fluorescence, inhibitor 0.3125 µM, row D: 149000
fluorescence, inhibitor 0.625 µM, row A: 55600
fluorescence, inhibitor 0.625 µM, row B: 60300
fluorescence, inhibitor 0.625 µM, row C: 60900
fluorescence, inhibitor 0.625 µM, row D: 57500
fluorescence, inhibitor 1.25 µM, row A: 25800
fluorescence, inhibitor 1.25 µM, row B: 27500
fluorescence, inhibitor 1.25 µM, row C: 27000
fluorescence, inhibitor 1.25 µM, row D: 27200
fluorescence, inhibitor 2.5 µM, row A: 14000
fluorescence, inhibitor 2.5 µM, row B: 13900
fluorescence, inhibitor 2.5 µM, row C: 14100
fluorescence, inhibitor 2.5 µM, row D: 15100
fluorescence, inhibitor 5 µM, row A: 10600
fluorescence, inhibitor 5 µM, row B: 9630
fluorescence, inhibitor 5 µM, row C: 9630
fluorescence, inhibitor 5 µM, row D: 9660
